Measurements reported in US20240368239A1, “Novel bispecific protein and use thereof” (SL METAGEN, priority 2020, published 2024).
“Also recorded” adds a separate entry of the source.

How the values were obtained:
[1] = In vivo pharmacokinetics profile after subcutaneous administration (GLP-1-Fc ELISA and GLP-2-Fc ELISA); set-up: species or system male SD (Sprague Dawley) rats; settings: rat, 1 mg/kg SC
Method: First, each protein was administered to 3 male SD (Sprague Dawley) rats per group at a dose of 1 mg/kg by subcutaneous (SC) route. Before injection and after 0.5, 1, 5, 10, 24, 48, 72, 120, and 168 hours after the injection, blood was collected and stored at room temperature for 30 minutes to aggregate. After centrifuging the aggregated blood at 3,000 rpm for 10 minutes, serum of each sample was collected and stored in a cryogenic freezer. Analyses were performed by an assay designed to specifically detect the GLP-1 site and Fc in the administered protein (GLP-1-Fc ELISA) and an assay designed to specifically detect the GLP-2 site and Fc in the administered protein (GLP-2-Fc ELISA). Specifically, a method of loading a biological sample on a plate coated with an antibody that binds to mouse-derived human immunoglobulin G4 (IgG4) to detect the target protein using a biotinylated anti-GLP-1 antibody (GLP-1-Fc ELISA), and a method of loading a biological sample on a plate coated with a monoclonal antibody that specifically reacts with GLP-2, to detect the target protein using a secondary antibody having HRP conjugated to mouse-derived human immunoglobulin G4 (IgG4) (GLP-2-Fc ELISA) were used. The obtained and prepared serum samples were loaded with appropriate dilutions to be analyzed at a position on a straight line of the standard curve.

B6 normal mice [2] = assay: Fluorescence spectrometry tissue distribution of Cy5.5-labelled substances; format: in vivo
Method: Next, the present inventors performed an experiment in B6 normal mice in order to observe the distribution in each tissue and organ according to the administration of a bispecific fusion protein according to an embodiment of the present invention. Cy5.5 was used as a fluorophore for tracking the distribution after administration of each substance. Buffer exchange was performed for each substance to be administered, MG12-1, MG12-4, and GLP-1Fc homodimer with boric acid buffer (pH 8.5), and with reference to the protocol of the Cy5.5 labeling kit (GE, #PA15605) were allowed to react with an appropriate amount of Cy5.5 overnight under refrigeration conditions. Unreacted Cy5.5 in the reaction-completed substance was removed through the PBS substitution process, and whether Cy5.5 was reacted well was confirmed through the final SDS-PAGE. Each administered substance was diluted with 10% DMSO/PBS to have the same fluorescence intensity using an ELISA plate reader capable of measuring fluorescence intensity before being administered.

Balb/c-nude mice = assay: PET-MRI tissue distribution of Zr89-labelled proteins; format: in vivo; settings: Zr89 label, SC
Description: Next, the present inventors performed an experiment in Balb/c-nude mice in order to observe the distribution in each tissue organ following the administration of a substance. Zr^89 was used as a radiotracer for tracking the distribution after administration of each substance. Each substance to be administered was labeled with Zr^89 as a reaction condition and a chelator selected through a preliminary test. The labeled Zr^89-protein was purified using a PD-10 column, and Zr^89 labeling efficiency and purity were confirmed using Radio TLC and SEC-HPLC. The labeling efficiency of the Zr^89-protein of 90% or more and the purity of 80% or more were determined to be appropriate, and the labeled protein was administered subcutaneously at 0.2 mCi/0.2 cc. Each administration substance was administered to three animals and static images for 20 minutes were obtained using PET-MRI at 1 hour, 6 hours, 24 hours, 48 hours, and 168 hours after injection. Through image analysis, the distribution of drugs as a function of time in the liver, small intestine, and large intestine was expressed as SUV (Standardized Uptake Value) and comparatively analyzed.

GLP-1 receptor = GLP-1 receptor (Homo sapiens, UniProt P43220); settings: GLP-1 activity
GLP-1 receptor, sequence (P43220 24-463, species assumed): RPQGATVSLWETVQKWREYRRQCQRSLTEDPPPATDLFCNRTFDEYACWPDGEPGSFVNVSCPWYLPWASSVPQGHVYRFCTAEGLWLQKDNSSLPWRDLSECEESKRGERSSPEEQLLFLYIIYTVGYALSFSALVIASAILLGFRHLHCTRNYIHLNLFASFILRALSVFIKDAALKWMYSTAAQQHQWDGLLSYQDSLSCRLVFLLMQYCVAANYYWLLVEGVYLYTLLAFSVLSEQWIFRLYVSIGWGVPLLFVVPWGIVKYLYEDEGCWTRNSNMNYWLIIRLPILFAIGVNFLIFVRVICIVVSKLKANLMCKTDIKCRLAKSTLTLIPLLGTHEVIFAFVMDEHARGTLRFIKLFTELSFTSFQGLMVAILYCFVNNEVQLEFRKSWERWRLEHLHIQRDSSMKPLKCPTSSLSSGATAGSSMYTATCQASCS

B6 normal mice [3] = assay: Small intestine weight and body weight (GLP-1-Fc homodimer, GLP-2-Fc homodimer, MG12-1, MG12-4); format: in vivo; settings: SC twice a week, 4 doses; homodimers 10 nmol/kg, MG12 20 nmol/kg
Description: In addition, the present inventors conducted the same experiment as above while only varying the administered substance, in order to confirm whether the bispecific fusion proteins (MG12-1 and MG12-4) designed in a form other than MG12-5 also increase the small intestine weight and energy absorption rate of experimental animals. Specifically, PBS, 10 nmol/kg GLP-1-Fc homodimer, 10 nmol/kg GLP-2-Fc homodimer, 20 nmol/kg MG12-1, and 20 nmol/kg MG12-4 were subcutaneously administered. The drug was administered twice a week for a total of 4 times for 2 weeks. After 4 doses, the body weight was measured before autopsy, and the small intestine was excised after the autopsy and weighed. After the autopsy, the entire gastrointestinal tract of the mouse was separated, the mesentery and the pancreas were excised, and the area where the ileum and the cecum meet was cut to separate the small intestine and the large intestine. The separated small intestine was perfused and washed with 10% neutral formalin to remove the contents, and was weighed after removing the neutral formalin with an absorbent towel.

[4] = 24 hours after administration, Cy5.5 label

B1: MG12-1: Knob/hole Fc heterodimer: GLP-1 (SEQ 1), glycan linker, first fusion protein SEQ 24; GLP-2 (SEQ 17), second fusion protein SEQ 32 (protein)
chain 1: HGEGTFTSDVSSYLEGQAAKEFIAWLVKGRGGGGGSGGGGSGGGGSAKNTTAPATTRNTTRGGEEKKKEKEKEEQEERTHTCPPCPSHTQPLGVFLFPPKPKDTLMISRTPEVTCVVVDVSQEDPEVQFNWYVDGVEVHNAKTKPREEQFNSTYRVVSVLTVLHQDWLNGKEYKCKVSNKGLPSSIEKTISKAKGQPREPQVYTLPPCQEEMTKNQVSLWCLVKGFYPSDIAVEWESNGQPENNYKTTPPVLDSDGSFFLYSRLTVDKSRWQEGNVFSCSVMHEALHNHYTQKSLSLSLGK
chain 2: HGDGSFSDEMNTILDNLAARDFINWLIQTKITDGGGGSGGGGSGGGGSEKEKEEQEERTHTCPPCPSHTQPLGVFLFPPKPKDTLMISRTPEVTCVVVDVSQEDPEVQFNWYVDGVEVHNAKTKPREEQFNSTYRVVSVLTVLHQDWLNGKEYKCKVSNKGLPSSIEKTISKAKGQPREPQVCTLPPSQEEMTKNQVSLSCAVKGFYPSDIAVEWESNGQPENNYKTTPPVLDSDGSFFLVSRLTVDKSRWQEGNVFSCSVMHEALHNHYTQKSLSLSLGK
- AUClast ([1]; GLP-1-Fc ELISA (Table 5)): 13919.8 ± 824.9 ng·h/mL
- Cmax ([1]; GLP-1-Fc ELISA (Table 5)): 442.2 ± 20.8 ng/mL
- Half-life ([1]; GLP-1-Fc ELISA (Table 5)): 16.5 ± 6.3 h
- Tmax ([1]; GLP-1-Fc ELISA (Table 5)): 10 h
- AUClast ([1]; GLP-2-Fc ELISA (Table 6)): 78639.0 ± 11205.3 ng·h/mL
- Cmax ([1]; GLP-2-Fc ELISA (Table 6)): 1136.7 ± 261.0 ng/mL
- Half-life ([1]; GLP-2-Fc ELISA (Table 6)): 43.7 ± 1.8 h
- Tmax ([1]; GLP-2-Fc ELISA (Table 6)): 24.0 ± 0.0 h
- Average fluorescence intensity, Brain (B6 normal mice [2]; [4]): 489
- Average fluorescence intensity, Large intestine (B6 normal mice [2]; [4]): 3702
- Average fluorescence intensity, Small intestine (B6 normal mice [2]; [4]): 7320
- distribution in the small intestine and the large intestine (B6 normal mice [2]; compared to GLP-1-Fc homodimer): larger
- distribution to the liver (SUV) (Balb/c-nude mice): reduced or showed no difference compared to Fc
- distribution to the small intestine and large intestine (SUV) (Balb/c-nude mice): significantly high compared to that of GLP-1-Fc homodimer and GLP-2-Fc homodimer
- activity reduced due to glycosylation (GLP-1 receptor): about 11 times
- small intestine weight (B6 normal mice [3]): greater increase in small intestine weight than the GLP-2-Fc homodimer administered group; also recorded: superior effect of increasing small intestine weight
- weight change before autopsy (body weight) (B6 normal mice [3]): numerical increase in body weight
